# Where a chain is given by its changes, count along the chain named.
# B1: 18B4D5 (antibody, V domains shown)
# VH: EVKLQESGPGLVKPSQSLSLTCTVTGYSITSDYTWNWIRQFPGNKLEWMGYISFSGSTSYNPSLKSRLSITRDTSKNQFFLQLNSVTTEDTATYYCARGLDYWGQGTTLTVSS
# VL: DIVMTQSPAIMSASLGERVTMTCTASSSISSSYLYWYQQKPGSSPKLWIYSTSNLASGVPARFSGSGSGTSYSLTISSMEAEDAATYYCHQLHRSPWTFGGGTKLEIKR
# notes: Mouse hybridoma monoclonal antibody; The tie uses 'at least 85% identity' wording; also called AB1; antiCD123 B4D5
# B2: 11A12C6 (antibody, V domains shown)
# VH: QVQLKESGPGLVAPSQSLSITCTVSGFSLTSYDINWIRQTPGKGLEWLGVIWTGGGTNYNSAFMSRLSISRDNSKSQVFLKMNSLQTDDTAIYYCVRGDGYYWYFDVWGAGTTVTVSS
# VL: IVMTQSPSSLAVSAGEKVTMSCKSSQSLFSSSARKNYLAWYQQRPGQSPKLLIYWASTRESGVPDRFTGSGSGTDFTLTIGSVQAEDLAVYYCKQSYSLFTFGSGTKLEIKR
# notes: Mouse hybridoma monoclonal antibody; also called AB5
# B3: 11B6E6 (antibody, V domains shown)
# VH: QVKLEESGPGLVAPSQSLSITCTVSGFSLTSYDISWIRQPPGKGLEWLGVIWTGGGTNYNSAFMSRLSISKDNSKSQVFLKMFSLQTDDTAIYYCVRAHGYYFAMDYWGQGTSVTVSS
# VL: DIVLTQSPSSLAVSAGEKVTMRCKSSQSLLNSSTRKNYLAWYQQKPGQSPKLLIYWASTRESGVPDRFTGSGSGTDFTLTISSVQAEDLAVYYCKQSYNLFTFGSGTKLEIKR
# notes: Mouse hybridoma monoclonal antibody; also called AB3
# B4: 14G12D7 (antibody, V domains shown)
# VH: B1 VH with K3Q, I29V, T34A, S53I, F54Y, S57T, L68I, A97T, L100V
# VL: DIVLTQSPAIMSASPGEKVTMTCRASSSVRSSYLHWYQQKSGASPKLWIYSTSNLASGVPARFSGSGSGTSYSLTISSVEAEDAATYYCLQFSGYPFTFGGGTKLEIKR
# notes: Mouse hybridoma monoclonal antibody; also called AB4
# B5: 17F7B2 (antibody, V domains shown)
# VH: EVQLQQSGTVLARPGASVKMSCKASGYSFTSYWMHWVKQRPGQGLEWIGAFYPGKSDTTYNQKFKGKAKLTAVTSASTAYMELSSLTNEDSAVYYCTKGYRYDWFAYWGQGTLVTVSA
# VL: DVVMTQTPLSLPVSLGDQASISCRSSQSLVHSNGITYLHWYLQKPGQSPKLLIYKVSNRFSGVPDRFSGSGSGTDFTLKISRVEAEDLGVYFCSQNTHVPFTFGSGTKLEIKR
# notes: Mouse hybridoma monoclonal antibody; also called AB2
# B6: 15E11B7 (antibody, V domains shown)
# VH: EVQLEQSGPELVKPGDSVKISCKASGYSFTGYFMNWVKQSHGKSLEWIGRINPYNDYTFNNQKFKDKATLTVDKSSSTAHMELLSLTSEDSAVYYCGGGVRGAWFAFWGQGTLVTVSE
# VL: DIVLTQSTTSLAVSLGQRATISCRASKSVSTSGYNYMHWYQQKPGQPPKLLIYLASNLESGVPARFSGSGSGTDFTLNIHPVEEEDAATYYCQHSADLPYTFGGGTKLEIKR
# notes: Mouse hybridoma monoclonal antibody; also called AB6
# Assays:
# [1] = target: CD123 on cells and tissues (CAL-1, GEN 2.2, PDX and primary BPDCN cells, normal pDC, monocytes, CD34+ cells, endothelial cells) (human) (UniProt P26951); test: flow cytometry on endothelial HMEC cell line; mean [minimum-maximum]
# [2] = target: CD123 on cells and tissues (CAL-1, GEN 2.2, PDX and primary BPDCN cells, normal pDC, monocytes, CD34+ cells, endothelial cells) (human) (UniProt P26951); test: flow cytometry, MFIR = MFI of CD123 staining / MFI of isotype control mAb; cells: normal pDC, n=7; mean [min-max]
# [3] = target: CD123 on cells and tissues (CAL-1, GEN 2.2, PDX and primary BPDCN cells, normal pDC, monocytes, CD34+ cells, endothelial cells) (human) (UniProt P26951); test: flow cytometry, MFIR = MFI of CD123 staining / MFI of isotype control mAb; cells: CD34 cells, n=7; mean [min-max]
# [4] = target: CD123 on cells and tissues (CAL-1, GEN 2.2, PDX and primary BPDCN cells, normal pDC, monocytes, CD34+ cells, endothelial cells) (human) (UniProt P26951); test: flow cytometry, MFIR = MFI of CD123 staining / MFI of isotype control mAb; cells: monocytes, n=12; mean [min-max]
# [5] = target: CD123 on cells and tissues (CAL-1, GEN 2.2, PDX and primary BPDCN cells, normal pDC, monocytes, CD34+ cells, endothelial cells) (human) (UniProt P26951); test: flow cytometry on monocytes; mean [minimum-maximum]
# [6] = target: CD123 on cells and tissues (CAL-1, GEN 2.2, PDX and primary BPDCN cells, normal pDC, monocytes, CD34+ cells, endothelial cells) (human) (UniProt P26951); test: flow cytometry, MFIR = MFI of CD123 staining / MFI of isotype control mAb; cells: lymphocytes, n=12; mean [min-max]
# [7] = target: CD123 on cells and tissues (CAL-1, GEN 2.2, PDX and primary BPDCN cells, normal pDC, monocytes, CD34+ cells, endothelial cells) (human) (UniProt P26951); test: flow cytometry on BPDCN cells; mean [minimum-maximum]
# [8] = target: CD123 on cells and tissues (CAL-1, GEN 2.2, PDX and primary BPDCN cells, normal pDC, monocytes, CD34+ cells, endothelial cells) (human) (UniProt P26951); test: flow cytometry, MFIR = MFI of CD123 staining / MFI of isotype control mAb; cells: BPDCN, n=3; mean [min-max]
# [9] = target: CD123 on cells and tissues (CAL-1, GEN 2.2, PDX and primary BPDCN cells, normal pDC, monocytes, CD34+ cells, endothelial cells) (human) (UniProt P26951); test: flow cytometry on normal pDC; mean [minimum-maximum]
# [10] = target: CD123 on cells and tissues (CAL-1, GEN 2.2, PDX and primary BPDCN cells, normal pDC, monocytes, CD34+ cells, endothelial cells) (human) (UniProt P26951); test: flow cytometry on CD34+ cells; mean [minimum-maximum]
# [11] = target: CD123 on cells and tissues (CAL-1, GEN 2.2, PDX and primary BPDCN cells, normal pDC, monocytes, CD34+ cells, endothelial cells) (human) (UniProt P26951); test: flow cytometry, MFIR = MFI of CD123 staining / MFI of isotype control mAb; cells: polynuclear cells, n=5; mean [min-max]
# [12] = target: T1, CD123 (protein in solution in the Octet affinity assay) (human, UniProt P26951 19-305, limits assumed); test: BLI (Octet), antibody on streptavidin biosensor, CD123 6.25 nM
# T1 construct: also called IL-3Rα; Interleukine-3 Receptor alpha
# T1 sequence (looked up): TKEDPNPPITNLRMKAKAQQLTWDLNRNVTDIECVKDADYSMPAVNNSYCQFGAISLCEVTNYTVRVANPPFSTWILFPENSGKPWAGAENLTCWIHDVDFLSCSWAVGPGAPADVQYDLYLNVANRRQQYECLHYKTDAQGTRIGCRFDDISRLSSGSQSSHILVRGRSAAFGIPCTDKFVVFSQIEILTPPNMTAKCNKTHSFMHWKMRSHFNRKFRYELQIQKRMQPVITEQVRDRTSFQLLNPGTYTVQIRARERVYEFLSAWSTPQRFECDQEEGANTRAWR
# Protocol: (§1) Affinity of the antibodies of the invention to CD123 is tested on streptavidin biosensors. Herein, to determine KD values seven different concentrations of CD123 were used on immobilized antibodies of the invention. The results were analyzed according to the Octet system available at FortéBio.
# [13] = target: T1, CD123 (protein in solution in the Octet …); test: BLI (Octet), antibody on streptavidin biosensor, CD123 25 nM
# Protocol: as §1
# [14] = target: T1, CD123 (protein in solution in the Octet …); test: BLI (Octet), antibody on streptavidin biosensor, CD123 50 nM
# Protocol: as §1
# [15] = target: T1, CD123 (protein in solution in the Octet …); test: BLI (Octet), antibody on streptavidin biosensor, CD123 in solution
# Protocol: as §1
# [16] = target: T1, CD123 (protein in solution in the Octet …); test: BLI (Octet), antibody on streptavidin biosensor, CD123 12.5 nM
# Protocol: as §1
Molecule,MFI [1],MFIR [2],MFIR [3],MFIR [4],MFI [5],MFIR [6],MFI [7],MFIR [8],MFI [9],MFI [10],MFIR [11],Response [12],Response [13],Response [14],Kd [15] [nM],koff [15] [s⁻¹],kon [15] [M⁻¹ s⁻¹],Response [16]
6H6 commercial antiCD123 antibody,1250,210,8,3.3,1700,2.2,11700,42.2,34400,874,1.5,–,–,–,–,–,–,–
B1,–,–,–,–,–,–,–,–,–,–,–,0.12,0.42,0.697,< 0.001,< 1e-07,122000,0.23
B2,–,–,–,–,–,–,–,–,–,–,–,0.281,–,–,< 0.001,< 1e-07,326000,0.416
B3,–,–,–,–,–,–,–,–,–,–,–,0.0349,0.179,0.316,9.37,0.000657,70100,0.0895
B4,–,–,–,–,–,–,–,–,–,–,–,–,0.134,0.221,8.84,0.000325,36700,–
B5,–,–,–,–,–,–,–,–,–,–,–,0.149,0.34,0.507,2.55,0.000882,346000,0.265
B6,–,–,–,–,–,–,–,–,–,–,–,0.0878,0.305,–,2.48,0.000826,332000,0.155
